Data set [1] addresses T1, GST-p50 (NF-kB p50 subunit) (UniProt P19838-2 1-433, del434-969). In words: EMSA.
Data set [2] addresses T1, GST-p50 (NF-kB p50 subunit). In words: EMSA. The source holds these as a separate data set.

Where two headings read alike, the source gives them in different places.

B1: Spic promoter NF-kB site WT (dsDNA)
DNA 1: GCTGCAAAGGGGATTTTTTTT
DNA 2: AAAAAAAATCCCCTTTGCAGC
For the molecule B1, in data set [1], the binding result is “binds”.

B2: Spic promoter NF-kB site mutant (dsDNA)
DNA 1: GCTGCAAAGCCGATTTTTTTT
DNA 2: AAAAAAAATCGGCTTTGCAGC
Turning to B2, the binding result in data set [2] is given as “no binding”.

(Values after paper doi:10.1101/2021.08.25.457658.)
